{
  "source": "paper PMC3466273",
  "molecular_target": "His1 (position 1, -----HTASDA)",
  "assay": "potentiometry",
  "conditions": "not stated (electrode with a thermo-compensating apparatus); not stated (no added salt; distilled water with about 1 mM HCl/NaOH); none (distilled water acidified with 1 mM HCl, titrated with 1 mM NaOH); free peptide, 0.27 mM, 5 mL, in water",
  "data": [
    {"protein": "HTASDAAAAAALTAANAAAAAAASMA", "values": [
      {"measurement": "pKa", "result": 6.0}
    ]}
  ]
}
